This note sets out measurements from paper PMC3526273, “A SUMO-interacting motif activates budding yeast ubiquitin ligase Rad18 towards SUMO-modified PCNA” (Nucleic Acids Research, 2012).

This assay has as its target T1, GSTPCNA (S. cerevisiae, UniProt P15873 1-258).
T1 construct: PCNA of S. cerevisiae; not shown: GST, N-terminal, kept
T1 sequence (looked up): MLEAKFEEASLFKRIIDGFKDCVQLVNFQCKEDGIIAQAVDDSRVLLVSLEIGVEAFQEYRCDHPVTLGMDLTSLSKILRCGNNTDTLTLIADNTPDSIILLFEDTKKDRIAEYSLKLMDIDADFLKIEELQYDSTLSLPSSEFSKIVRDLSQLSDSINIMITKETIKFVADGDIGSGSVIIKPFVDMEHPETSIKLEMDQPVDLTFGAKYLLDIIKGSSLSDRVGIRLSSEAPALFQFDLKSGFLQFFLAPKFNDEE
The experiment in a line: pull-down; GST-tagged protein immobilised on glutathione Sepharose (1 h, 4°C), binding partner added for 90 min at 4°C in phosphate-buffered saline with 0.05% Triton X-100; three washes; anti-His western blot. Particulars: both partners purified.

Where a chain is given by its changes, count along the chain named. Numbers in names are those of the source.

B1: HisRad18(1-255) (domain or fragment, S. cerevisiae, UniProt P10862 1-255, looked up)
chain: MDHQITTASDFTTTSIPSLYQLDTLLRCHICKDFLKVPVLTPCGHTFCSLCIRTHLNNQPNCPLCLFEFRESLLRSEFLVSEIIQSYTSLRSSLLDALRIPKPTPVPENEEVPGPENSSWIELISESESDSVNAADDDLQIVATSERKLAKRSMTDILPLSSKPSKRNFAMFRSERIKKKSKPNEQMAQCPICQQFYPLKALEKTHLDECLTLQSLGKKPKISTTFPTESNPHNKSSSRFKVRTPEVDKSSCGET
notes: detected by anti-His western blot; not shown: His6, N-terminal, kept
Take B1: the binding result is on record as “binds”.

B2: HisRad18(1-255) SIM* (L139A, I141A, V142A) (domain or fragment, S. cerevisiae, UniProt P10862 1-255, looked up)
chain: B1 chain with L139A, I141A, V142A
notes: also called SIM* mutant; not shown: His6, N-terminal, kept
For B2, the binding result is on record as “binds”.
